This assay addresses T1, recombinant hPD1 (Sino Biologicals, reference 10377-H08H) (human, UniProt Q15116 25-167).
T1 construct: also called Human recombinant PD-1; rPD1
As to the kind of experiment: ELISA: human recombinant PD-1 immobilised, detection with anti-human Fc-peroxidase, TMB. The procedure: PD-1 binding ELISA assay. Human recombinant PD-1 (rPD1) protein was immobilized, and antibodies were added at different concentrations. Revelation was performed with an anti-human Fc antibody coupled to peroxidase. Colorimetry was determined at 450 nm using TMB substrate. The bifunctional molecules comprising an IL7 W142H N297A variant with 1 anti PD-1 arm ( ) was tested as control.

T1 sequence (Q15116 25-167 limits assumed): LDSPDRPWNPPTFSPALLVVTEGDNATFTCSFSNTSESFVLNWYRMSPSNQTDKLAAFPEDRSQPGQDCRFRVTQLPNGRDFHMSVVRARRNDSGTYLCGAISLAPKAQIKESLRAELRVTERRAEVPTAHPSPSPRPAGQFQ

B1: anti PD-1*1 IL7 W142H*1 N297A DHS (other)
chain: DKTHTCPPCPAPELLGGPSVFLFPPKPKDTLMISRTPEVTCVVVDVSHEDPEVKFNWYVDGVEVHNAKTKPREEQYASTYRVVSVLTVDHHDWLNGKEYKCKVSNKALPAPIEKTISKAKGQPREPQVYTLPPCRDELTKNQVSLWCLVKGFYPSDIAVEWESNGQPENNYKTTPPVLDSDGSFFLYSKLTVDKSRWQQGNVFSCSVMHEALHSHYTQKSLSLSPGK
heavy: QIQLVQSGSELKKPGASVKVSCKASGYTFTHYAMNWVRQAPGQGLEWMGWINTNTGEPTYAQGFTGRFVFSLDTSVSTAYLQISSLKAEDTAVYYCAREREPGMDNWGQGTLVTVSSASTKGPSVFPLAPSSKSTSGGTAALGCLVKDYFPEPVTVSWNSGALTSGVHTFPAVLQSSGLYSLSSVVTVPSSSLGTQTYICNVNHKPSNTKVDKKVEPKSCDKTHTCPPCPAPELLGGPSVFLFPPKPKDTLMISRTPEVTCVVVDVSHEDPEVKFNWYVDGVEVHNAKTKPREEQYASTYRVVSVLTVDHHDWLNGKEYKCKVSNKALPAPIEKTISKAKGQPREPQVCTLPPSRDELTKNQVSLSCAVKGFYPSDIAVEWESNGQPENNYKTTPPVLDSDGSFFLVSKLTVDKSRWQQGNVFSCSVMHEALHSHYTQKSLSLSPGKGGGGSGGGGSGGGGSDCDIEGKDGKQYESVLMVSIDQLLDSMKEIGSNCLNNEFNFFKRHICDANKEGMFLFRAARKLRQFLKMNSTGDFDLHLLKVSEGTTILLNCTGQVKGRKPAALGEAQPTKSLEENKSLKEQKKLNDLCFLKRLLQEIKTCHNKILMGTKEH
light: DVVMTQSPLSLPVTLGQPASISCRSSQSLVHANTNTYLEWYQQRPGQSPRLLIYKVSNRFSGVPDRFSGSGSGTDFTLKISRVEAEDVGVYYCFQGTHVPNTFGQGTKLEIKRTVAAPSVFIFPPSDEQLKSGTASVVCLLNNFYPREAKVQWKVDNALQSGNSQESVTEQDSKDSTYSLSSTLTLSKADYEKHKVYACEVTHQGLSSPVTKSFNRGEC
notes: also called IL7 W142H N297A DHS
For the molecule B1, the “EC50 (read off the curve)” value is ~0.05 µg/mL.

B2: anti PD-1*1 IL7 W142H*1 N297A LS (other)
chain: DKTHTCPPCPAPELLGGPSVFLFPPKPKDTLMISRTPEVTCVVVDVSHEDPEVKFNWYVDGVEVHNAKTKPREEQYASTYRVVSVLTVLHQDWLNGKEYKCKVSNKALPAPIEKTISKAKGQPREPQVYTLPPCRDELTKNQVSLWCLVKGFYPSDIAVEWESNGQPENNYKTTPPVLDSDGSFFLYSKLTVDKSRWQQGNVFSCSVLHEALHSHYTQKSLSLSPGK
heavy: QIQLVQSGSELKKPGASVKVSCKASGYTFTHYAMNWVRQAPGQGLEWMGWINTNTGEPTYAQGFTGRFVFSLDTSVSTAYLQISSLKAEDTAVYYCAREREPGMDNWGQGTLVTVSSASTKGPSVFPLAPSSKSTSGGTAALGCLVKDYFPEPVTVSWNSGALTSGVHTFPAVLQSSGLYSLSSVVTVPSSSLGTQTYICNVNHKPSNTKVDKKVEPKSCDKTHTCPPCPAPELLGGPSVFLFPPKPKDTLMISRTPEVTCVVVDVSHEDPEVKFNWYVDGVEVHNAKTKPREEQYASTYRVVSVLTVLHQDWLNGKEYKCKVSNKALPAPIEKTISKAKGQPREPQVCTLPPSRDELTKNQVSLSCAVKGFYPSDIAVEWESNGQPENNYKTTPPVLDSDGSFFLVSKLTVDKSRWQQGNVFSCSVLHEALHSHYTQKSLSLSPGKGGGGSGGGGSGGGGSDCDIEGKDGKQYESVLMVSIDQLLDSMKEIGSNCLNNEFNFFKRHICDANKEGMFLFRAARKLRQFLKMNSTGDFDLHLLKVSEGTTILLNCTGQVKGRKPAALGEAQPTKSLEENKSLKEQKKLNDLCFLKRLLQEIKTCHNKILMGTKEH
light: DVVMTQSPLSLPVTLGQPASISCRSSQSLVHANTNTYLEWYQQRPGQSPRLLIYKVSNRFSGVPDRFSGSGSGTDFTLKISRVEAEDVGVYYCFQGTHVPNTFGQGTKLEIKRTVAAPSVFIFPPSDEQLKSGTASVVCLLNNFYPREAKVQWKVDNALQSGNSQESVTEQDSKDSTYSLSSTLTLSKADYEKHKVYACEVTHQGLSSPVTKSFNRGEC
notes: Fc mutant of anti PD-1*1 IL7W142H*1; also called IL7 W142H N297A LS
Regarding B2, the “EC50 (read off the curve)” value was ~0.03 µg/mL.

The values are drawn from patent publication US20240067727A1 (OSE IMMUNOTHERAPEUTICS, published 2024).
